# Data published in publication PMC10880117.
# How the values were obtained:
# [1] = target: Human WT HSC70 (HSPA8) (human) (UniProt P11142)
# [2] = target: Human V95E HSC70 (HSPA8) (human) (UniProt P11142)
# Chain of DnaJB4 (Q9UDY4 whole entry): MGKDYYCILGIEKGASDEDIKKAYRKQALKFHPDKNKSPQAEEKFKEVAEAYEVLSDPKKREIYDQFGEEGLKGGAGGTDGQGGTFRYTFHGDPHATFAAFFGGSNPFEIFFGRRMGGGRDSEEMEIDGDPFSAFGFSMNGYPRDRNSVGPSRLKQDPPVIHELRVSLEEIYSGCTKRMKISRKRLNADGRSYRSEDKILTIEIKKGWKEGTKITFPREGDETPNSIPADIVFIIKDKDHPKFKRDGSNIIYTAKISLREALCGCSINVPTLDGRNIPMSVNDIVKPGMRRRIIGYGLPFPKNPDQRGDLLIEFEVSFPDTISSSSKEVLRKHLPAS
"pseudo-Km of DnaJB4-stimulated ATPase activity (malachite green assay, 1 μM HSC70 titrated with DnaJB4, 37°C, Michaelis-Menten fit) [1]","pseudo-Km of DnaJB4-stimulated ATPase activity (malachite green assay, 1 μM HSC70 titrated with DnaJB4, 37°C, Michaelis-Menten fit) [2]","stimulation of ATPase activity (malachite green assay, normalised percent) as BAG1 is titrated into HSC70 (1 μM) and DnaJB4 (0.1 μM); value at the highest concentration tested [2]",Molecule
0.092 µM,0.088 µM,–,DnaJB4 (from UniProt Q9UDY4 1-337) (natural protein)
–,–,25%,BAG1 (natural protein) MAQRGGARRPRGDRERLGSRLRALRPGREPRQSEPPAQRGPPPSGRPPARSTASGHDRPTRGAAAGARRPRMKKKTRRRSTRSEELTRSEELTLSEEATWSEEATQSEEATQGEEMNRSQEVTRDEESTRSEEVTREEMAAAGLTVTVTHSNEKHDLHVTSQQGSSEPVVQDLAQVVEEVIGVPQSFQKLIFKGKSLKEMETPLSALGIQDGCRVMLIGKKNSPQEEVELKKLKHLEKSVEKIADQLEELNKELTGIQQGFLPKDLQAEALCKLDRRVKATIEQFMKILEEIDTLILPENFKDSRLKRKGLVKKVQAFLAECDTVEQNICQETERLQSTNFALAE
